Where two headings read alike, the source gives them in different places. One block for each binder: values may come before it.
Columns and labels:
[1] = target: T1, untagged human LY6G6D extracellular domain (construct used for structural studies) (human); assay: SEC-MALS
T1 chain: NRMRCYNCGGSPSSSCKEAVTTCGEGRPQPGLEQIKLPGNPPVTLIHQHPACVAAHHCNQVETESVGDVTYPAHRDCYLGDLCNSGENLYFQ

[2] = target: T2, human LY6G6D (recombinant protein of the BIAcore kinetics and of the epitope binning) (Homo sapiens, UniProt O95868); assay: SPR
[3] = target: T2, human LY6G6D (recombinant protein of …); assay: SPR; remark: listed apart in the source

- stoichiometry N [1]: 1
- binding result [2]: binds
B1: 1G4 Fab (Fab, V domains shown)
VH: EVQLQQSGPELVKPGASVKMSCKASGYTFTTYVMHWVQQKPGQGLEWIGYINPYNDGTKYNEKFKGKATLTSDTSSSTAYMELSSLTSDDSAVYYCGRRNFDYWGQGTLVTVSS
VL: DILMTQSPSSLTVSAGEKVTMSCKSSQSLLLSGNQENYLAWHQQKPGRSPKTLITWASTRISGVSDRFIGSGSGTDFTLTINSVQAEDLAVYYCQQSYSAPYTFGQGTKVEIK

- binding result [3]: binds
B2: anti-LY6G6D murine mAb clone 1G4 (antibody, V domains shown)
VH: B1 VH
VL: B1 VL
